Assays:
[1] = biological target: T1, non-structural 3 protein (NS3) of the hepatitis C virus (HCV) (hepatitis C virus); experiment: EIA, support-bound peptide, HCV NS3 control
T1 construct: Control antigen; also called HCV NS3

[2] = biological target: T2, Full length recombinant HBcAg (rHBcAg) encompassing residues 1-183 (hepatitis B virus, UniProt P03146 1-183); experiment: EIA, support-bound peptide, HBcAg 2 ug/well
T2 construct: range 1-183; also called hepatitis B virus core antigen

[3] = biological target: T2, Full length recombinant HBcAg (rHBcAg) …; experiment: EIA, support-bound peptide, HBcAg 0.2 ug/well
[4] = biological target: T2, Full length recombinant HBcAg (rHBcAg) …; experiment: competition EIA, peptide added to HBcAg before mAb 4-2 (competitor); OD of bound mAb
[5] = biological target: T2, Full length recombinant HBcAg (rHBcAg) …; experiment: EIA, support-bound peptide, HBcAg 5 ug/ml

T2 sequence (P03146 whole entry, the tested form may be a part): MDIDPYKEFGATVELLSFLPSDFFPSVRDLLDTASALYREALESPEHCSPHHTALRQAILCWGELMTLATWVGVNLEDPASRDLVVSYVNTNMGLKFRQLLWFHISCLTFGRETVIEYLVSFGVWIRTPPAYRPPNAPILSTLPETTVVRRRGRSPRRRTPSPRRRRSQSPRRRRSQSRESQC

Binder	OD at 405 nm [1] [OD]	OD at 405 nm [2] [OD]	OD at 405 nm [3] [OD]	OD at 490 nm [4] [OD]	OD at 490 nm [5] [OD]
QKFKGKATLTVDKSSSTAYM (also called Peptide # 30) [QKFKGKATLTVDKSSSTAYM (SEQ. ID. No. 33)]	0.035	1.11	0.207		
KPGASVKLSCKASGYIFTS [KPGASVKLSCKASGYIFTS (SEQ. ID. No. 39)]				0.202	1.34
PVEEEDTATYYCQHSWEIPY (also called Peptide # 20) [PVEEEDTATYYCQHSWEIPY (SEQ. ID. No. 23)]	0.124	0.625	0.207		
VKLSCKASGYIFTS [VKLSCKASGYIFTS (SEQ. ID. No. 44)]				0.152	3.7
ASQSVSTSSYSYMHWY [ASQSVSTSSYSYMHWY (SEQ. ID. No. 56)]					0.324
VDKSSSTAYMELTRLTSEDS (also called Peptide # 8) [VDKSSSTAYMELTRLTSEDS (SEQ. ID. No. 11)]	0.041	0.363	0.134		
YCQHSWEIPYTFGGGTKLEI (also called Peptide # 21) [YCQHSWEIPYTFGGGTKLEI (SEQ. ID. No. 24)]	0.052	0.498	0.173		
CKASGYIFTSYDIDWVRQTP (also called Peptide # 3) [CKASGYIFTSYDIDWVRQTP (SEQ. ID. No. 6)]	0.032				
IQLQQSGAELVKPGASVKIS (also called Peptide # 24) [IQLQQSGAELVKPGASVKIS (SEQ. ID. No. 27)]	0.021	0.369	0.123		
SVKLSCKASGYIFTS [SVKLSCKASGYIFTS (SEQ. ID. No. 43)]				0.175	3.36
AVYFCARGDYDYYRRYFDLW (also called Peptide # 10) [AVYFCARGDYDYYRRYFDLW (SEQ. ID. No. 13)]	0.038	0.981	0.304		
GKSLEWIGNINPYYGSTSYN (also called Peptide # 28) [GKSLEWIGNINPYYGSTSYN (SEQ. ID. No. 31)]	0.028	0.289	0.114		
TGFAYWGQGTLVTVSAAKTT (also called Peptide # 34) [TGFAYWGQGTLVTVSAAKTT (SEQ. ID. No. 37)]	0.035	0.898	0.192		
LVTVSAAKTTPPSVYPLVPV (also called Peptide # 35) [LVTVSAAKTTPPSVYPLVPV (SEQ. ID. No. 38)]	0.032				
SVSTSSYSYMHWY [SVSTSSYSYMHWY (SEQ. ID. No. 59)]					0.305
SYMHWY [SYMHWY (SEQ. ID. No. 65)]					0.218
QSVSTSSYSYMHWY [QSVSTSSYSYMHWY (SEQ. ID. No. 58)]					0.282
QLNSLTSEDSAVYYCARGKG (also called Peptide # 32) [QLNSLTSEDSAVYYCARGKG (SEQ. ID. No. 35)]	0.035				
TSSYSYMHWYQQKPGQPPKL [TSSYSYMHWYQQKPGQPPKL (SEQ. ID. No. 18)]	0.028	1.44	0.574		
GVPARFSGSGSGTDFTLNIH [GVPARFSGSGSGTDFTLNIH (SEQ. ID. No. 21)]	0.027	0.409	0.141		
NPYYGSTSYNQKFKGKATLT (also called Peptide # 29) [NPYYGSTSYNQKFKGKATLT (SEQ. ID. No. 32)]	0.021	0.783	0.213		
KRADAAPAVSIFPPSSKLG (also called Peptide # 23) [KRADAAPAVSIFPPSSKLG (SEQ. ID. No. 26)]	0.021	0.465	0.162		
TSSYSYMHWY [TSSYSYMHWY (SEQ. ID. No. 62)]					0.317
KLSCKASGYIFTS [KLSCKASGYIFTS (SEQ. ID. No. 45)]				0.808	3.69

Binder	OD at 405 nm [1] [OD]	OD at 405 nm [2] [OD]	OD at 405 nm [3] [OD]	OD at 490 nm [4] [OD]	OD at 490 nm [5] [OD]
SYSYMHWY [SYSYMHWY (printed with SEQ. ID. No. 63, a number already used for …)]					0.283
LIKYASNLESGVPARFSGSG [LIKYASNLESGVPARFSGSG (SEQ. ID. No. 20)]	0.02	0.357	0.112		
EKFKGRATLSVDKSSSTAYM (also called Peptide # 7) [EKFKGRATLSVDKSSSTAYM (SEQ. ID. No. 10)]	0.035	0.883	0.194		
SCRASQSVSTSSYSYMHWY [SCRASQSVSTSSYSYMHWY (SEQ. ID. No. 53)]					1.45
AVYYCARGKGTGFAYWGQGT (also called Peptide # 33) [AVYYCARGKGTGFAYWGQGT (SEQ. ID. No. 36)]	0.035	1.2	0.227		
YSYMHWY [YSYMHWY (SEQ. ID. No. 64)]					0.245
YDIDWVRQTPEQGLEWIGWI (also called Peptide # 4) [YDIDWVRQTPEQGLEWIGWI (SEQ. ID. No. 7)]	0.089				
STSSYSYMHWY [STSSYSYMHWY (SEQ. ID. No. 61)]					0.372
SSYSYMHWY [SSYSYMHWY (SEQ. ID. No. 63)]					0.311
EQGLEWIGWIFPGEGSTEYN (also called Peptide # 5) [EQGLEWIGWIFPGEGSTEYN (SEQ. ID. No. 8)]	0.182	0.706	0.256		
ELTRLTSEDSAVYFCARGDY (also called Peptide # 9) [ELTRLTSEDSAVYFCARGDY (SEQ. ID. No. 12)]	0.073				
FPGEGSTEYNEKFKGRATLS (also called Peptide # 6) [FPGEGSTEYNEKFKGRATLS (SEQ. ID. No. 9)]	0.109	0.325	0.121		
VSTSSYSYMHWY [VSTSSYSYMHWY (SEQ. ID. No. 60)]					0.369
CRASQSVSTSSYSYMHWY [CRASQSVSTSSYSYMHWY (SEQ. ID. No. 54)]					1.42
SGTDFTLNIHPVEEEDTATY [SGTDFTLNIHPVEEEDTATY (SEQ. ID. No. 22)]	0.206	0.649	0.205		
ASVKLSCKASGYIFTS [ASVKLSCKASGYIFTS (SEQ. ID. No. 42)]				0.207	3.22
VKLQQSGTEVVKPGASVKLS (also called Peptide # 1) [VKLQQSGTEVVKPGASVKLS (SEQ. ID. No. 4)]	0.021	0.323	0.124		
SQSVSTSSYSYMHWY [SQSVSTSSYSYMHWY (SEQ. ID. No. 57)]					0.31
DYYRRYFDLWGQGTTVTVS (also called Peptide # 11) [DYYRRYFDLWGQGTTVTVS (SEQ. ID. No. 14)]	0.022	0.356	0.133		
GASVKLSCKASGYIFTS [GASVKLSCKASGYIFTS (SEQ. ID. No. 41)]				0.205	2.86
PGASVKLSCKASGYIFTS [PGASVKLSCKASGYIFTS (SEQ. ID. No. 40)]				0.182	1.72
TFGGGTKLEIKRADAAPAV (also called Peptide # 22) [TFGGGTKLEIKRADAAPAV (SEQ. ID. No. 25)]	0.024	0.273	0.084		
VDKSSSTAYMQLNSLTSEDS (also called Peptide # 31) [VDKSSSTAYMQLNSLTSEDS (SEQ. ID. No. 34)]	0.106	0.338	0.114		

Source: US20020058247A1 (TRIPEP, published 2002)
